# Results: US20030157712A1, “Methods for determining cell responses through EphB receptors” (priority 1997, published 2003)
# B1: ephrin-B1/Fc dimers: disulfide-linked immunoglobulin Fc fusion form of ephrin-B1 (protein)
# chain: LAKNLEPVSWSSLNPKFLSGKGLVIYPKIGDKLDIICPRAEAGRPYEYYKLYLVRPEQAAACSTVLDPNVLVTCNRPEQEIRFTIKFQEFSPNYMGLEFKKHHDYYITSTSNGSLEGLENREGGVCRTRTMKIIMKVGQDPNAVTPEQLTTSRPSKEADNTVKMATQAPGSRGSLGDSDGKHETVNQEEKSGPGASGGSSGDPDGFFNSK
# modifications: left off: a dimerising Fc or GST
# Key:
# [1] = test system: human renal microvascular endothelial cells; test: Solid phase cell attachment assay (HRMEC); assay type: cell-based
# Description: Solid phase cell attachment assays. Forty-eight-well plates (Falcon) were coated with a layer of nitrocellulose (Schleicher & Schuell) and allowed to air dry as described (47). Coated wells were incubated overnight at 4° C. with PBS containing matrix proteins at the indicated concentrations alone (no addition, NA) or in combination with dimeric EphrinB1/Fc. Two hours prior to assay, wells were washed twice then blocked at 37° C. with 1% BSA. Serum starved cells were harvested in 2 mM EDTA in PBS (HEK293) or recovered by trypsinization (HRMEC), washed twice in serum free medium containing 1% BSA, then plated at a density of 0.7-1×10^5 cells per well. After incubation at 37° C. for 1 hour (or as specified), unattached cells were dislodged by 5 brisk slaps of the plate on a horizontal surface. Wells were gently washed with PBS until cells were not adherent to albumin-coated wells. Adherent cells were fixed with 2% glutaraldehyde, stained with 0.5% crystal violet (in EtOH), and quantified by OD reading at 570 nm. In experiments using competitive peptides or blocking antibodies, cells were preincubated with the indicated peptides (100 μM) or antibodies (10 μg/ml) for 15 min at RT before plating. Results representative of three independent experiments are given as OD values and represent the mean of duplicate or triplicate wells±SEM.
# To determine if this ephrin-B1 surface density effect was mediated through integrins, a defined RGD peptide, GRGDSPK (SEQ ID NO:3), was applied to the surfaces in the absence and presence of ephrin-B1/Fc, or IgG1. Attachment assays of serum-starved microvascular endothelial cells to GRGDSPK (SEQ ID NO:3)-coated 48-well-plates were performed as described herein. Cells were preincubated for 15 min at 22° C. with blocking peptides (100 uM) or anti-integrin antibodies (10 ug/ml) before plating. Similar results were obtained using fibrinogen (1 ug/cm^2). HEK293 cells were transiently transfected with pSRα-EphB1 and attachment assays were performed after 48 hours as described herein.
# [2] = test system: LMW-PTP recruitment to EphB1 and EphB2 complexes; test: LMW-PTP recruitment to EphB1 and EphB2 complexes (co-immunoprecipitation, immunoblot); assay type: cell-based, human
# Description: Ligand stimulation and immunoprecipitation of endogenous EphB receptors. Primary HRMEC were used at passages 3-6, as described (12). P19 cells were cultured as recommended (ATCC, Rockville, Md.). Ninety min prior to ligand stimulation, cells (2×10^5cells/60 mm dish) were plated on Matrigel-(Collaborative Biomedical Products, Becton Dickinson, Bedford, Mass., as recommended) or fibronectin-coated (29) dishes. Ligand (ephrin-B1/Fc) or control (ORF/Fc) (30) multimers were generated by preincubation with anti-Fc at a fixed ratio of 0.1× the indicated concentrations of Fc fusion proteins [50 ng ml^−1 anti-Fc for 500 ng ml^−1 Fc fusion protein]. If not otherwise indicated, Fc fusion proteins (ephrinB1/Fc or ORF/Fc) were used at 500 ng ml^−1 in the absence or presence of preclustering anti-Fc at 50 ng ml^−1. Cells were incubated with agonists at 37° C. for 10 min, or as described in the figure legends. […] Precipitated proteins were analyzed by immunoblot (15).
# It was reasoned that alternative signaling responses mediated through EphB receptors might reflect differential association of additional receptor signaling complex components. […] Accordingly, EphB1 immunoprecipitates were analyzed for LMW-PTP immunoreactivity (11,17).
# [3] = fibrinogen-coated nitrocellulose surfaces
molecule,measurement,setting,value
B1,"endothelial cell attachment, plates pre-coated using standard procedures","[1]; alone or in the presence of fibrinogen, no nitrocellulose",did not promote cell attachment
same,cell attachment at densities higher than 300 ng/cm^2,[1]; [3],sharp decline
same,coating density evoking maximal cell attachment,[1]; [3],300 ng/cm^2
same,"endothelial attachment, ligand adsorbed to nitrocellulose-coated surfaces","[1]; non-denaturing conditions, with fibrinogen, compared with Fc control human IgG1",promoted endothelial attachment
same,recruitment of 18 kDa tyrosine phosphoprotein (LMW-PTP) to EphB1 and EphB2 immunoprecipitates,[2],not
